Results from patent US20260139055A1.

Biological target: canine FcRn complex (FcRn-alpha subunit and beta-microglobulin), His-tagged, biotin labeled (canine)
Assay: SPR (Biacore), biotin-FcRn captured on SA surface, IgG flowed over, pH 6, 15 C

B1: wild-type canine IgGB (65) mAb (antibody, part only; not given: variable domains of unnamed mAb, not shown: another chain or arm of the molecule; small tags and cut ends)
constant: ASTTAPSVFPLAPSCGSTSGSTVALACLVSGYFPEPVTVSWNSGSLTSGVHTFPSVLQSSGLYSLSSMVTVPSSRWPSETFTCNVAHPASKTKVDKPVPKRENGRVPRPPDCPKCPAPEMLGGPSVFIFPPKPKDTLLIARTPEVTCVVVDLDPEDPEVQISWFVDGKQMQTAKTQPREEQFNGTYRVVSVLPIGHQDWLKGKQFTCKVNNKALPSPIERTISKARGQAHQPSVYVLPPSREELSKNTVSLTCLIKDFFPPDIDVEWQSNGQQEPESKYRTTPPQLDEDGSYFLYSKLSVDKSRWQRGDTFICAVMHEALHNHYTQESLSHSPGK
Kd: 30.7 nM

B2: canine IgGB (65) mAb with mutation Q311K (antibody, part only; not given: Variable domains, not shown: another chain or arm of the molecule)
constant: ASTTAPSVFPLAPSCGSTSGSTVALACLVSGYFPEPVTVSWNSGSLTSGVHTFPSVLQSSGLYSLSSMVTVPSSRWPSETFTCNVAHPASKTKVDKPVPKRENGRVPRPPDCPKCPAPEMLGGPSVFIFPPKPKDTLLIARTPEVTCVVVDLDPEDPEVQISWFVDGKQMQTAKTQPREEQFNGTYRVVSVLPIGHKDWLKGKQFTCKVNNKALPSPIERTISKARGQAHQPSVYVLPPSREELSKNTVSLTCLIKDFFPPDIDVEWQSNGQQEPESKYRTTPPQLDEDGSYFLYSKLSVDKSRWQRGDTFICAVMHEALHNHYTQESLSHSPGK
Kd: 6.23 nM

B3: canine IgGB (65) mAb with mutation T286V (antibody, part only; not given: variable domains of unnamed mAb, not shown: another chain or arm of the molecule)
constant: ASTTAPSVFPLAPSCGSTSGSTVALACLVSGYFPEPVTVSWNSGSLTSGVHTFPSVLQSSGLYSLSSMVTVPSSRWPSETFTCNVAHPASKTKVDKPVPKRENGRVPRPPDCPKCPAPEMLGGPSVFIFPPKPKDTLLIARTPEVTCVVVDLDPEDPEVQISWFVDGKQMQVAKTQPREEQFNGTYRVVSVLPIGHQDWLKGKQFTCKVNNKALPSPIERTISKARGQAHQPSVYVLPPSREELSKNTVSLTCLIKDFFPPDIDVEWQSNGQQEPESKYRTTPPQLDEDGSYFLYSKLSVDKSRWQRGDTFICAVMHEALHNHYTQESLSHSPGK
Kd: 8.36 nM

B4: canine IgGB (65) mAb with mutation Q311I (antibody, part only; not given: variable domains of unnamed mAb, not shown: another chain or arm of the molecule)
constant: ASTTAPSVFPLAPSCGSTSGSTVALACLVSGYFPEPVTVSWNSGSLTSGVHTFPSVLQSSGLYSLSSMVTVPSSRWPSETFTCNVAHPASKTKVDKPVPKRENGRVPRPPDCPKCPAPEMLGGPSVFIFPPKPKDTLLIARTPEVTCVVVDLDPEDPEVQISWFVDGKQMQTAKTQPREEQFNGTYRVVSVLPIGHIDWLKGKQFTCKVNNKALPSPIERTISKARGQAHQPSVYVLPPSREELSKNTVSLTCLIKDFFPPDIDVEWQSNGQQEPESKYRTTPPQLDEDGSYFLYSKLSVDKSRWQRGDTFICAVMHEALHNHYTQESLSHSPGK
Kd: 7.94 nM

B5: canine IgGB (65) mAb with mutation Q311F (antibody, part only; not given: Variable domains, not shown: another chain or arm of the molecule)
constant: ASTTAPSVFPLAPSCGSTSGSTVALACLVSGYFPEPVTVSWNSGSLTSGVHTFPSVLQSSGLYSLSSMVTVPSSRWPSETFTCNVAHPASKTKVDKPVPKRENGRVPRPPDCPKCPAPEMLGGPSVFIFPPKPKDTLLIARTPEVTCVVVDLDPEDPEVQISWFVDGKQMQTAKTQPREEQFNGTYRVVSVLPIGHFDWLKGKQFTCKVNNKALPSPIERTISKARGQAHQPSVYVLPPSREELSKNTVSLTCLIKDFFPPDIDVEWQSNGQQEPESKYRTTPPQLDEDGSYFLYSKLSVDKSRWQRGDTFICAVMHEALHNHYTQESLSHSPGK
Kd: 33 nM

B6: canine IgGB (65) mAb with mutation Q311D (antibody, part only; not given: Variable domains, not shown: another chain or arm of the molecule)
constant: ASTTAPSVFPLAPSCGSTSGSTVALACLVSGYFPEPVTVSWNSGSLTSGVHTFPSVLQSSGLYSLSSMVTVPSSRWPSETFTCNVAHPASKTKVDKPVPKRENGRVPRPPDCPKCPAPEMLGGPSVFIFPPKPKDTLLIARTPEVTCVVVDLDPEDPEVQISWFVDGKQMQTAKTQPREEQFNGTYRVVSVLPIGHDDWLKGKQFTCKVNNKALPSPIERTISKARGQAHQPSVYVLPPSREELSKNTVSLTCLIKDFFPPDIDVEWQSNGQQEPESKYRTTPPQLDEDGSYFLYSKLSVDKSRWQRGDTFICAVMHEALHNHYTQESLSHSPGK
Kd: 13.3 nM

B7: canine IgGB (65) mAb with mutation Q311H (antibody, part only; not given: variable domains of unnamed mAb, not shown: another chain or arm of the molecule)
constant: ASTTAPSVFPLAPSCGSTSGSTVALACLVSGYFPEPVTVSWNSGSLTSGVHTFPSVLQSSGLYSLSSMVTVPSSRWPSETFTCNVAHPASKTKVDKPVPKRENGRVPRPPDCPKCPAPEMLGGPSVFIFPPKPKDTLLIARTPEVTCVVVDLDPEDPEVQISWFVDGKQMQTAKTQPREEQFNGTYRVVSVLPIGHHDWLKGKQFTCKVNNKALPSPIERTISKARGQAHQPSVYVLPPSREELSKNTVSLTCLIKDFFPPDIDVEWQSNGQQEPESKYRTTPPQLDEDGSYFLYSKLSVDKSRWQRGDTFICAVMHEALHNHYTQESLSHSPGK
Kd: 6.66 nM

B8: canine IgGB (65) mAb with mutation T286Q (antibody, part only; not given: Variable domains, not shown: another chain or arm of the molecule)
constant: ASTTAPSVFPLAPSCGSTSGSTVALACLVSGYFPEPVTVSWNSGSLTSGVHTFPSVLQSSGLYSLSSMVTVPSSRWPSETFTCNVAHPASKTKVDKPVPKRENGRVPRPPDCPKCPAPEMLGGPSVFIFPPKPKDTLLIARTPEVTCVVVDLDPEDPEVQISWFVDGKQMQQAKTQPREEQFNGTYRVVSVLPIGHQDWLKGKQFTCKVNNKALPSPIERTISKARGQAHQPSVYVLPPSREELSKNTVSLTCLIKDFFPPDIDVEWQSNGQQEPESKYRTTPPQLDEDGSYFLYSKLSVDKSRWQRGDTFICAVMHEALHNHYTQESLSHSPGK
Kd: 8.58 nM

B9: canine IgGB (65) mAb with mutation T286C (antibody, part only; not given: variable domains of unnamed mAb, not shown: another chain or arm of the molecule)
constant: ASTTAPSVFPLAPSCGSTSGSTVALACLVSGYFPEPVTVSWNSGSLTSGVHTFPSVLQSSGLYSLSSMVTVPSSRWPSETFTCNVAHPASKTKVDKPVPKRENGRVPRPPDCPKCPAPEMLGGPSVFIFPPKPKDTLLIARTPEVTCVVVDLDPEDPEVQISWFVDGKQMQCAKTQPREEQFNGTYRVVSVLPIGHQDWLKGKQFTCKVNNKALPSPIERTISKARGQAHQPSVYVLPPSREELSKNTVSLTCLIKDFFPPDIDVEWQSNGQQEPESKYRTTPPQLDEDGSYFLYSKLSVDKSRWQRGDTFICAVMHEALHNHYTQESLSHSPGK
Kd: 8.19 nM

B10: canine IgGB (65) mAb with mutation T286S (antibody, part only; not given: Variable domains, not shown: another chain or arm of the molecule)
constant: ASTTAPSVFPLAPSCGSTSGSTVALACLVSGYFPEPVTVSWNSGSLTSGVHTFPSVLQSSGLYSLSSMVTVPSSRWPSETFTCNVAHPASKTKVDKPVPKRENGRVPRPPDCPKCPAPEMLGGPSVFIFPPKPKDTLLIARTPEVTCVVVDLDPEDPEVQISWFVDGKQMQSAKTQPREEQFNGTYRVVSVLPIGHQDWLKGKQFTCKVNNKALPSPIERTISKARGQAHQPSVYVLPPSREELSKNTVSLTCLIKDFFPPDIDVEWQSNGQQEPESKYRTTPPQLDEDGSYFLYSKLSVDKSRWQRGDTFICAVMHEALHNHYTQESLSHSPGK
Kd: 6.68 nM

B11: canine IgGB (65) mAb with mutation T286N (antibody, part only; not given: Variable domains, not shown: another chain or arm of the molecule)
constant: ASTTAPSVFPLAPSCGSTSGSTVALACLVSGYFPEPVTVSWNSGSLTSGVHTFPSVLQSSGLYSLSSMVTVPSSRWPSETFTCNVAHPASKTKVDKPVPKRENGRVPRPPDCPKCPAPEMLGGPSVFIFPPKPKDTLLIARTPEVTCVVVDLDPEDPEVQISWFVDGKQMQNAKTQPREEQFNGTYRVVSVLPIGHQDWLKGKQFTCKVNNKALPSPIERTISKARGQAHQPSVYVLPPSREELSKNTVSLTCLIKDFFPPDIDVEWQSNGQQEPESKYRTTPPQLDEDGSYFLYSKLSVDKSRWQRGDTFICAVMHEALHNHYTQESLSHSPGK
Kd: 6.32 nM

B12: canine IgGB (65) mAb with mutation T286R (antibody, part only; not given: Variable domains, not shown: another chain or arm of the molecule)
constant: ASTTAPSVFPLAPSCGSTSGSTVALACLVSGYFPEPVTVSWNSGSLTSGVHTFPSVLQSSGLYSLSSMVTVPSSRWPSETFTCNVAHPASKTKVDKPVPKRENGRVPRPPDCPKCPAPEMLGGPSVFIFPPKPKDTLLIARTPEVTCVVVDLDPEDPEVQISWFVDGKQMQRAKTQPREEQFNGTYRVVSVLPIGHQDWLKGKQFTCKVNNKALPSPIERTISKARGQAHQPSVYVLPPSREELSKNTVSLTCLIKDFFPPDIDVEWQSNGQQEPESKYRTTPPQLDEDGSYFLYSKLSVDKSRWQRGDTFICAVMHEALHNHYTQESLSHSPGK
Kd: 4.73 nM

B13: canine IgGB (65) mAb with mutation T286P (antibody, part only; not given: Variable domains, not shown: another chain or arm of the molecule)
constant: ASTTAPSVFPLAPSCGSTSGSTVALACLVSGYFPEPVTVSWNSGSLTSGVHTFPSVLQSSGLYSLSSMVTVPSSRWPSETFTCNVAHPASKTKVDKPVPKRENGRVPRPPDCPKCPAPEMLGGPSVFIFPPKPKDTLLIARTPEVTCVVVDLDPEDPEVQISWFVDGKQMQPAKTQPREEQFNGTYRVVSVLPIGHQDWLKGKQFTCKVNNKALPSPIERTISKARGQAHQPSVYVLPPSREELSKNTVSLTCLIKDFFPPDIDVEWQSNGQQEPESKYRTTPPQLDEDGSYFLYSKLSVDKSRWQRGDTFICAVMHEALHNHYTQESLSHSPGK
Kd: 6.73 nM

B14: canine IgGB (65) mAb with mutation Q311C (antibody, part only; not given: Variable domains, not shown: another chain or arm of the molecule)
constant: ASTTAPSVFPLAPSCGSTSGSTVALACLVSGYFPEPVTVSWNSGSLTSGVHTFPSVLQSSGLYSLSSMVTVPSSRWPSETFTCNVAHPASKTKVDKPVPKRENGRVPRPPDCPKCPAPEMLGGPSVFIFPPKPKDTLLIARTPEVTCVVVDLDPEDPEVQISWFVDGKQMQTAKTQPREEQFNGTYRVVSVLPIGHCDWLKGKQFTCKVNNKALPSPIERTISKARGQAHQPSVYVLPPSREELSKNTVSLTCLIKDFFPPDIDVEWQSNGQQEPESKYRTTPPQLDEDGSYFLYSKLSVDKSRWQRGDTFICAVMHEALHNHYTQESLSHSPGK
Kd: 10.3 nM

B15: canine IgGB (65) mAb with mutation Q311G (antibody, part only; not given: Variable domains, not shown: another chain or arm of the molecule)
constant: ASTTAPSVFPLAPSCGSTSGSTVALACLVSGYFPEPVTVSWNSGSLTSGVHTFPSVLQSSGLYSLSSMVTVPSSRWPSETFTCNVAHPASKTKVDKPVPKRENGRVPRPPDCPKCPAPEMLGGPSVFIFPPKPKDTLLIARTPEVTCVVVDLDPEDPEVQISWFVDGKQMQTAKTQPREEQFNGTYRVVSVLPIGHGDWLKGKQFTCKVNNKALPSPIERTISKARGQAHQPSVYVLPPSREELSKNTVSLTCLIKDFFPPDIDVEWQSNGQQEPESKYRTTPPQLDEDGSYFLYSKLSVDKSRWQRGDTFICAVMHEALHNHYTQESLSHSPGK
Kd: 8.42 nM

B16: canine IgGB (65) mAb with mutation Q311E (antibody, part only; not given: Variable domains, not shown: another chain or arm of the molecule)
constant: ASTTAPSVFPLAPSCGSTSGSTVALACLVSGYFPEPVTVSWNSGSLTSGVHTFPSVLQSSGLYSLSSMVTVPSSRWPSETFTCNVAHPASKTKVDKPVPKRENGRVPRPPDCPKCPAPEMLGGPSVFIFPPKPKDTLLIARTPEVTCVVVDLDPEDPEVQISWFVDGKQMQTAKTQPREEQFNGTYRVVSVLPIGHEDWLKGKQFTCKVNNKALPSPIERTISKARGQAHQPSVYVLPPSREELSKNTVSLTCLIKDFFPPDIDVEWQSNGQQEPESKYRTTPPQLDEDGSYFLYSKLSVDKSRWQRGDTFICAVMHEALHNHYTQESLSHSPGK
Kd: 9.39 nM
